Assay results as given in patent US7829301B2, “Screening assays for binding antagonists of the AMD-associated variant of factor H (H384)” (The University of Manchester, priority 2006, dated 2010).

Target: T1, FMOD (Bos taurus, UniProt P13605)
T1 construct: FMOD was isolated from bovine articular cartilage; from tissue; host or cells: bovine articular cartilage
T1 sequence (P13605 19-376): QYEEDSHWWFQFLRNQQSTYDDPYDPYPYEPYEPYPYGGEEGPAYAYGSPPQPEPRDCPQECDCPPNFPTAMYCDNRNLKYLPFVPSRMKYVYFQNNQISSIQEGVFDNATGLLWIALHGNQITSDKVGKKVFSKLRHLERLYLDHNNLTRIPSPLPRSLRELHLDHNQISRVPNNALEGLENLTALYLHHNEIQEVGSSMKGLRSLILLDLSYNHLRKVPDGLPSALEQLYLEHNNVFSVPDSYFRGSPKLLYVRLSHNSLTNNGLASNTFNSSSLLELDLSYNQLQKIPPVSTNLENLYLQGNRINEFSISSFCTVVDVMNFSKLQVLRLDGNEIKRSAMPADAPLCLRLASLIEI
Experiment: Protein/protein binding assay with coated FMOD
Parameters: species or system bovine
Description: FMOD was isolated from bovine articular cartilage (Heinghrd et al., (1986) J. Biol. Chem. 261, 13866-13872) and recombinant CRP was obtained from Calbiochem. Deglycosylated FMOD was prepared by treatment with N-glycosiadase F (Roche Applied Science) as previously described (Sjöberg et al. (2005) J. Biol. Chem. 280, 32301-32308).
CRP or FMOD was coated overnight at 4° C. onto microtiter plates (Maxisorp, Nunc) at a concentration of 10 μg/ml in 75 mM sodium carbonate buffer, pH 9.6. Wells treated only with coating buffer or 1% (w/v) BSA (Sigma) in coating buffer (for the assays involving FMOD) were used as negative controls. Between each step the wells were washed extensively with 50 mM Tris-HCl, 150 mM NaCl, 0.1% (v/v) Tween 20, pH 7.5. All wells were blocked with 1% (w/v) BSA (Sigma) in phosphate buffered saline (Invitrogen) for 1 hour at 37° C. […] The amount of bound protein was assessed using a goat polyclonal anti-FH antibody (Quidel, Cat # A312) followed by HRP-labeled anti-goat secondary antibodies (Dako) and the OPD development kit (Dako). Detection of biotinylated protein was performed using a StreptABComplex/HRP-kit from Dako, and in both cases the absorbance at 490 nm was measured to quantify protein binding.

B1: FHCCP6-8(Y384): recombinant Factor H CCPs 6-8, Y384 variant obtained by site-directed mutagenesis (SEQ ID NO: 3) (protein, listed as Homo sapiens)
chain: MGTLKPCDYPDIKHGGLYHENMRRPYFPVAVGKYYSYYCDEHFETPSGSYWDHIHCTQDGWSPAVPCLRKCYFPYLENGYNQNYGRKFVQGKSIDVACHPGYALPKAQTTVTCMENGWSPTPRCIRVKTCSKSSIDIENGFISESQYTYALKEKAKYQCKLGYVTADGETSGSITCGKDGWSAQPTCI
modifications: VARIANT (1)...(188) FHCCP6-8 (Y384 allotype of mature Factor H)
binding to immobilized FMOD relative to the other variant (biotinylated FHCCP6-8 variants, all concentrations tested): significantly stronger signals | affinity for FMOD compared to H384 variant (direct binding assay): affinity is increased
